Test results from patent USRE47150 (Bayer, dated 2018).
Substitutions are numbered along the chain they refer to. Names may count otherwise.

T1: human tissue factor pathway inhibitor (TFPI) (human, UniProt P10646 29-304, limits assumed)
T1 construct: bought; also called hTFPI; human TFPI
T1 sequence (looked up): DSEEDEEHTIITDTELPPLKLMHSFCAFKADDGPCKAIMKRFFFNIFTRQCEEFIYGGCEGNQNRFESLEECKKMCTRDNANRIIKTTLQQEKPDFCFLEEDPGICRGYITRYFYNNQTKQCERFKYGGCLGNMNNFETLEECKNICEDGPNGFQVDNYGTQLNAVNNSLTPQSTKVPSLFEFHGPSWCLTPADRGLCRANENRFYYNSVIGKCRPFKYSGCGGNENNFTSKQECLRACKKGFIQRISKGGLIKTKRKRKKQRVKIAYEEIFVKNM

T2: mouse tissue factor pathway inhibitor (TFPI) (mouse, UniProt O54819 29-289, limits assumed)
T2 construct: bought; also called mTFPI; murine TFPI
T2 sequence (looked up): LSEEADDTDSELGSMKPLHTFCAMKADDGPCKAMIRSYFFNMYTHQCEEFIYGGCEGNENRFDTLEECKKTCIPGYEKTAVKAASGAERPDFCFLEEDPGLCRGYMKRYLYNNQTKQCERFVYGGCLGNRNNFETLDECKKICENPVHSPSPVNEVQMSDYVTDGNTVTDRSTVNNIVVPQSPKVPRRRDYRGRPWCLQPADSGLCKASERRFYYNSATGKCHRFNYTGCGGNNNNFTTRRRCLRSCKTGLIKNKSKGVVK

B1: 2A8 HC G33A+S35D+S55R+K99L/LC Y48F+N51V+D91W (Fab, V domains shown)
VH: QVQLVESGGGLVQPGGSLRLSCAASGFTFRSYAMDWVRQAPGKGLEWVSSIRGSRSSTYYADSVKGRFTISRDNSKNTLYLQMNSLRAEDTAVYYCARLYRYWFDYWGQGTLVTVSS
VL: DIELTQPPSVSVAPGQTARISCSGDNLRNYYAHWYQQKPGQAPVVVIFYDVNRPSGIPERFSGSNSGNTATLTISGTQAEDEADYYCQSWWDGVPVFGGGTKLTVLG
B2: 2A8 HC Q1E+S35D+S55R+K99L/LC Y48F+N51V+D91W (Fab, V domains shown)
VH: B1 VH with Q1E, A33G
VL: B1 VL
B3: 2A8 HC S31V+I51D+S55R/LC Y48F+N51V+D91L (Fab, V domains shown)
VH: B1 VH with S31V, A33G, D35S, I51D, L99K
VL: B1 VL with W91L
B4: 2A8 HC I51D+S54F+K99L/LC D91W (Fab, V domains shown)
VH: B1 VH with A33G, D35S, I51D, S54F, R55S
VL: B1 VL with F48Y, V51N
B5: 2A8 HC S31V+I51D+S54F+K99V/LC Y48F+N51V (Fab, V domains shown)
VH: B1 VH with S31V, A33G, D35S, I51D, S54F, R55S, L99V
VL: B1 VL with W91D
B6: 2A8 HC S31V+K99V/LC N51V+D91W (Fab, V domains shown)
VH: B1 VH with S31V, A33G, D35S, R55S, L99V
VL: B1 VL with F48Y
B7: 2A8 HC S31V+G33P+S35D/LC Y48F+D91L+V96W (Fab, V domains shown)
VH: B1 VH with S31V, A33P, R55S, L99K
VL: B1 VL with V51N, W91L, V96W
B8: 2A8 HC S31V+G33P+S35D/LC Y48F+N51V+D91L (Fab, V domains shown)
VH: B1 VH with S31V, A33P, R55S, L99K
VL: B1 VL with W91L
B9: 2A8 HC Q1E+R30S+S35D+S55R+S56G+K99L/LC Y48F+N51V+D91W (Fab, V domains shown)
VH: B1 VH with Q1E, R30S, A33G, S56G
VL: B1 VL
B10: 2A8 HC G33P+I51D+S54F/LC Y48F+N51V+V96W (Fab, V domains shown)
VH: B1 VH with A33P, D35S, I51D, S54F, R55S, L99K
VL: B1 VL with W91D, V96W
B11: 2A8 HC R30S+S35D+S55R+K99L/LC Y48F+N51V+D91W (Fab, V domains shown)
VH: B1 VH with R30S, A33G
VL: B1 VL
B12: 2A8 HC M34I+S35D+S55R+K99L/LC Y48F+N51V+D91W (Fab, V domains shown)
VH: B1 VH with A33G, M34I
VL: B1 VL
B13: 2A8 HC S31V+G33P+I51D+S54F+K99V/LC Y48F+N51V+D91W (Fab, V domains shown)
VH: B1 VH with S31V, A33P, D35S, I51D, S54F, R55S, L99V
VL: B1 VL
B14: 2A8 HC S31V+I51D+S55R+S56G+K99V/LC Y48F+D91L+V96W (Fab, V domains shown)
VH: B1 VH with S31V, A33G, D35S, I51D, S56G, L99V
VL: B1 VL with V51N, W91L, V96W
B15: 2A8 HC M34K+S35D+S55R+K99L/LC Y48F+N51V+D91W (Fab, V domains shown)
VH: B1 VH with A33G, M34K
VL: B1 VL
B16: 2A8 HC S31V+I51E+S55R+K99V/LC Y48F+D91L+V96W (Fab, V domains shown)
VH: B1 VH with S31V, A33G, D35S, I51E, L99V
VL: B1 VL with V51N, W91L, V96W
B17: 2A8 HC R30S+S31V+I51D+S55R+K99V/LC Y48F+D91L+V96W (Fab, V domains shown)
VH: B1 VH with R30S, S31V, A33G, D35S, I51D, L99V
VL: B1 VL with V51N, W91L, V96W
B18: 2A8 HC Q1E+R30S+S35D+S55G+S56G+K99L/LC Y48F+D91L+V96W (Fab, V domains shown)
VH: B1 VH with Q1E, R30S, A33G, R55G, S56G
VL: B1 VL with V51N, W91L, V96W
B19: 2A8 HC S31V+I51D+S55R+K99L/LC Y48F+N52G+D91L+V96W (Fab, V domains shown)
VH: B1 VH with S31V, A33G, D35S, I51D
VL: B1 VL with V51N, N52G, W91L, V96W
B20: 2A8 HC S31V+G33A+I51D+S55R+K99V/LC Y48F+D91L+V96W (Fab, V domains shown)
VH: B1 VH with S31V, D35S, I51D, L99V
VL: B1 VL with V51N, W91L, V96W
B21: 2A8 HC G33P+S35D+S54F+K99L/LC Y48F+N52G (Fab, V domains shown)
VH: B1 VH with A33P, S54F, R55S
VL: B1 VL with V51N, N52G, W91D
B22: 2A8 HC Q1E+S31V+S50A+I51D+S55R+S56G+K99V/LC Y48F+D91L+V96W (Fab, V domains shown)
VH: B1 VH with Q1E, S31V, A33G, D35S, S50A, I51D, S56G, L99V
VL: B1 VL with V51N, W91L, V96W
B23: 2A8 HC S31V+I51D+R52S+S55R+K99V/LC Y48F+D91L+V96W (Fab, V domains shown)
VH: B1 VH with S31V, A33G, D35S, I51D, R52S, L99V
VL: B1 VL with V51N, W91L, V96W
B24: 4B7 HC N32D+D62R+Y112D/LC V30L+S32R+N35I+T36N (Fab, V domains shown)
VH: QVQLQQSGPGLVKPSQTLSLTCAISGDSVSSDSAAWSWIRQSPGRGLEWLGIIYKRSKWYNRYAVSVKSRITINPDTSKNQFSLQLNSVTPEDTAVYYCARWHSDKHWGFDDWGQGTLVTVSS
VL: DIVMTQSPLSLPVTPGEPASISCRSSQSLLFRDGINYLNWYLQKPGQSPQLLIYKGSNRASGVPDRFSGSGSGTDFTLKISRVEAEDVGVYYCQQYDSYPLTFGQGTKVEIKR
B25: 4B7 HC N32D+I53T+D62R+Y112D/LC S32R+D33F+N35I+D97T (Fab, V domains shown)
VH: B24 VH with I53T
VL: B24 VL with L30V, D33F, N36T, D97T
B26: 4B7 HC Q1E+N32D+G44S+K55Y+D62R+Y112D/LC S32R+D33F+N35I+D97T (Fab, V domains shown)
VH: B24 VH with Q1E, G44S, K55Y
VL: B24 VL with L30V, D33F, N36T, D97T
B27: 4B7 HC N32D+K55Y+D62R+Y112D/LC S32R+D33F+N35I+D97T (Fab, V domains shown)
VH: B24 VH with K55Y
VL: B24 VL with L30V, D33F, N36T, D97T
B28: 4B7 HC N32D+D62S+H107M+Y112D/LC S32R+D33R+N35T (Fab, V domains shown)
VH: B24 VH with R62S, H107M
VL: B24 VL with L30V, D33R, I35T, N36T
B29: 4B7 HC Q1E+N32D+G44S+K55Y+D62R+Y112D/LC V30L+S32R+D33F+N35I+T36N+D97T (Fab, V domains shown)
VH: B24 VH with Q1E, G44S, K55Y
VL: B24 VL with D33F, D97T
B30: 4B7 HC N32D+I53T+D62Q+Y112D/LC F31I+D33F+N35I (Fab, V domains shown)
VH: B24 VH with I53T, R62Q
VL: B24 VL with L30V, F31I, R32S, D33F, N36T
B31: 4B7 HC N32D+S37N+D62R+Y112D/LC S32R+D33F+N35I+D97T (Fab, V domains shown)
VH: B24 VH with S37N
VL: B24 VL with L30V, D33F, N36T, D97T
B32: 4B7 HC N32D+K55Y+D62Q+Y112D/LC F31I+D33F+N35I (Fab, V domains shown)
VH: B24 VH with K55Y, R62Q
VL: B24 VL with L30V, F31I, R32S, D33F, N36T
B33: 4B7 HC N32D+G44S+D62R+Y112D/LC S32R+D33F+N35I+D97T (Fab, V domains shown)
VH: B24 VH with G44S
VL: B24 VL with L30V, D33F, N36T, D97T
B34: 4B7 HC Q1E+N32D+G44S+K55Y+D62R+Y112D/LC V30L+S32R+N35I+T36N (Fab, V domains shown)
VH: B24 VH with Q1E, G44S, K55Y
VL: B24 VL
B35: 4B7 HC Q1E+N32D+D62R+Y112D/LC S32R+D33F+N35I+D97T (Fab, V domains shown)
VH: B24 VH with Q1E
VL: B24 VL with L30V, D33F, N36T, D97T

Each binder was assayed against T1, human tissue factor pathway inhibitor … (assay: competitive ELISA).

Row | Binder | variant/HC_K99L
1 | B1 | 16 ratio
2 | B2 | 20.9 ratio
3 | B3 | 8.4 ratio
4 | B4 | 6.2 ratio
5 | B5 | 8.1 ratio
6 | B6 | 6.7 ratio
7 | B7 | 22.5 ratio
8 | B8 | 12.2 ratio
9 | B9 | 11.9 ratio
10 | B10 | 0.6 ratio
11 | B11 | 17.9 ratio
12 | B12 | 19.6 ratio
13 | B13 | 6.6 ratio
14 | B14 | 16.2 ratio
15 | B15 | 11.2 ratio
16 | B16 | 9.2 ratio
17 | B17 | 13.5 ratio
18 | B18 | 13.6 ratio
19 | B19 | 0.4 ratio
20 | B20 | 9 ratio
21 | B21 | 6.2 ratio
22 | B22 | 12.1 ratio
23 | B23 | 11.7 ratio

What follows are binders tested against T2, mouse tissue factor pathway inhibitor … (assay: competitive ELISA).

Row | Binder | variant/HC_K99L
24 | B1 | 14.7 ratio
25 | B2 | 20.3 ratio
26 | B3 | 6.5 ratio
27 | B4 | 5.3 ratio
28 | B5 | 2.2 ratio
29 | B6 | 5.6 ratio
30 | B7 | 5.9 ratio
31 | B8 | 11.7 ratio
32 | B9 | 9.3 ratio
33 | B10 | 0.4 ratio
34 | B11 | 19.1 ratio
35 | B12 | 18.1 ratio
36 | B13 | 5.9 ratio
37 | B14 | 12.1 ratio
38 | B15 | 11.6 ratio
39 | B16 | 7 ratio
40 | B17 | 6.5 ratio
41 | B18 | 10.6 ratio
42 | B19 | 0.1 ratio
43 | B20 | 4.7 ratio
44 | B21 | 2.3 ratio
45 | B22 | 7.7 ratio
46 | B23 | 7.9 ratio

Target: T1, human tissue factor pathway inhibitor …
Experiment: competitive ELISA
Remark: another data set of the same source

Row | Binder | variant/HC_D62R
47 | B24 | 25 ratio
48 | B25 | 19.6 ratio
49 | B26 | 26.3 ratio
50 | B27 | 25.6 ratio
51 | B28 | 19.6 ratio
52 | B29 | 20.4 ratio
53 | B30 | 5.7 ratio
54 | B31 | 1.9 ratio
55 | B32 | 25.6 ratio
56 | B33 | 26.5 ratio
57 | B34 | 23 ratio
58 | B35 | 26.7 ratio

Target: T2, mouse tissue factor pathway inhibitor …
Experiment: competitive ELISA
Remark: another data set of the same source

Row | Binder | variant/HC_D62R | binding result
59 | B24 | 7 ratio | –
60 | B25 | 8.3 ratio | –
61 | B26 | 45.1 ratio | –
62 | B27 | 42.8 ratio | –
63 | B28 | 20.3 ratio | –
64 | B29 | 29.4 ratio | –
65 | B30 | – | no binding
66 | B31 | – | no binding
67 | B32 | 26.2 ratio | –
68 | B33 | 41.5 ratio | –
69 | B34 | 9.9 ratio | –
70 | B35 | 39.8 ratio | –
